Assay results published in patent publication CN110872351A.

Molecular target: GPC3蛋白 (glypican-3 protein expressed in eukaryotic HEK293 cells) (UniProt P51654)
Experiment: sandwich ELISA: coated GPC3 polyclonal antibody, GPC3 protein at varied concentration, GN1-Luc fixed at 0.2 μg/mL, luminescence; the value is a GPC3 concentration

UniProt P51654, sequence (P51654 25-559 limits assumed): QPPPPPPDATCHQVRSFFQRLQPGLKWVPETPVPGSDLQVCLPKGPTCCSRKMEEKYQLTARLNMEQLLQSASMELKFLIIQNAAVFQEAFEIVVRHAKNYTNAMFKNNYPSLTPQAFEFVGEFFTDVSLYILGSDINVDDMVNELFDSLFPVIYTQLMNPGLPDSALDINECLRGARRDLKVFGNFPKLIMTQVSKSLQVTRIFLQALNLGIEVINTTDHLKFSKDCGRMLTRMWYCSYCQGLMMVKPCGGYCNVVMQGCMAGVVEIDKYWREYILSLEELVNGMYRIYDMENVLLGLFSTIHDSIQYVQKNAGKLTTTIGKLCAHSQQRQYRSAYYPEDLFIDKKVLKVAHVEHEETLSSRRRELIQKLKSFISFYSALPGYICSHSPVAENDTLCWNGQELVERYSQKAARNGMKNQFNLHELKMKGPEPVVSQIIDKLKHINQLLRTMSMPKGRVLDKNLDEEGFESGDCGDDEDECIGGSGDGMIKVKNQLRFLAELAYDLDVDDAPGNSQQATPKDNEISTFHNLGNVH

B1: 融合蛋白GN1-Luc (fusion of nanobody GN1 and Nano-luciferase) (protein, part only; not given: junction residues and His tag, part only)
chain, part: QVQLVESGGGLVQAGGSLRLSCAASGRTFVGSTMGWFRQAPGKEREFVARMSWLGRSTYYADSVKGRFTISRDNAKNTVYLQMNSLKPEDTAVYYCALALGYIDLARPDAVDAWGQGTLVTVSS
- EC20: 0.0519 µg/mL
- EC80: 0.157 µg/mL
